The text below walks through data of publication PMC10764798, “A natural biogenic nanozyme for scavenging superoxide radicals” (Nature Communications, 2024).

B1: Bacterioferritin from Escherichia coli str. K-12 substr. MG1655 (natural protein)
chain: not shown
notes: Carries an inorganic iron core; also called EcBfr; Bfr; source: E. coli BL21(DE3), pet22b, ferrous salt added to the medium (biomineralized), purified; copies: 24
B2: Non-heme ferritin from Enterobacteriaceae (E. coli FTn) (natural protein, UniProt P0A998 1-165, looked up)
chain: MLKPEMIEKLNEQMNLELYSSLLYQQMSAWCSYHTFEGAAAFLRRHAQEEMTHMQRLFDYLTDTGNLPRINTVESPFAEYSSLDELFQETYKHEQLITQKINELAHAAMTNQDYPTFNFLQWYVSEQHEEEKLFKSIIDKLSLAGKSGEGLYFIDKELSTLDTQN
notes: Carries an inorganic iron core; also called EcFTn; source: E. coli BL21(DE3), pet22b, ferrous salt added to the medium (biomineralized), purified; copies: 24
B3: DNA protection protein from Sulfolobus solfataricus (natural protein, UniProt P95855 1-188, looked up)
chain: MQEKPQEPKVVGVEILEKSGLDIKKLVDKLVKATAAEFTTYYYYTILRMHLTGMEGEGLKEIAEDARLEDRLHFELMTQRIYELGGGLPRDIRQLADISACSDAYLPENWKDPKEILKVLLEAEQCAIRTWKEVCDMTYGKDPRTYDLAQRILQEEIEHEAWFLELLYGRPSGHFRRSSPGNAPYSKK
notes: Carries an inorganic iron core; also called ssDps; S. solfataricus Dps; source: E. coli BL21(DE3), pet22b, ferrous salt added to the medium (biomineralized), purified; copies: 12

The series deals with the molecule itself. Nature of the series: negative-stain TEM and DLS; purified biomineralized ferritin, 0.1 mg/mL; stained with 1% uranyl acetate, JEM-1400 80 kV TEM; DLS at 25 °C; assembly of the subunits into the protein cage.
Consider B1, for which the binding result is given as “binds”.

For the protein B2, the binding result is given as “binds”.

For the protein B3, the binding result was “binds”.
